Holding throughout (assay): cell_activity
In data set [1] the test system is ZFN 56529 (synthetic). The following applies: pair with 56526; K562 deltaF508 line.
The subject of data set [2] is ZFN 56527 (synthetic). The following applies: pair with 56526; K562 deltaF508 line.
In data set [3] the test system is ZFN 56127 (synthetic). The following applies: pair with 56126; K562.
The test system of data set [4] is ZFN 56254 (synthetic). Conditions: pair with 56255; K562.
Data set [5] deals with ZFN 56690 (synthetic). The following applies: pair with 56691; Neuro2a.
Data set [6] has as its system ZFN 56316 (synthetic). Conditions: pair with 56317; K562.
Data set [7] relates to ZFN 56643 (synthetic). The following applies: pair with 56644; Neuro2a.
The test system of data set [8] is ZFN 56526 (synthetic). Conditions: 16.8% with 56527; K562 deltaF508 line.
The test system of data set [9] is ZFN 56444 (synthetic). The following applies: pair with 56445; K562; F6 printed QSGMLAR but cited as SEQ 5 (QSGNLAR).
Data set [10] relates to ZFN 56126 (synthetic). The following applies: pair with 56127; K562.
The test system of data set [11] is ZFN 56691 (synthetic). The following applies: pair with 56690; Neuro2a; Table 2 site differs slightly from listing.
Data set [12] deals with ZFN 56445 (synthetic). The following applies: pair with 56444; K562.
The test system of data set [13] is ZFN 56255 (synthetic). The following applies: pair with 56254; K562.
Data set [14] concerns ZFN 56644 (synthetic). Conditions: pair with 56643; Neuro2a.
The test system of data set [15] is ZFN 56317 (synthetic). The following applies: pair with 56316; K562.

For “ATGATGAATATAGATACAGAAGCGTCAT (double strand) [CFTR dF508 56529/56527 site]”, the activity in data set [1] stood at 19.6 % indels; in data set [2], 16.8 % indels.
Take “ATGGAAACTGAGCTGCAGGTGTGTGATT (double strand) [CFTR int7 56127 site]”: the activity in data set [3] was determined as 55.4 % indels.
For the sequence “ATTAAGTCCACGCATACTGAAGTCTTGG (double strand) [CFTR int8 56254 site]”, the activity in data set [4] turned out to be 50.1 % indels.
“CCCTGGGTTATGCTGTGATCTTGTGTCA (double strand) [Cftr int1 56690 site]” had an activity in [5] of 67.2 % indels.
“GAAAAGACTATTGAGGGACTGGTGTAGA (double strand) [CFTR int1 56316 site]”: the activity in data set [6] was 52 % indels.
Sequence “GCAATGCTTCATGGGAAAGTACAGTGGC (double strand) [Cftr int8 56643 site]” gave an activity in data set [7] of 49.2 % indels.
In data set [8], “GGAAACACCAATGATATTTTCTTTAATG (double strand) [CFTR dF508 56526 site]” displayed an activity of 19.6 % indels.
In the case of “GGGAAGAAGCAGCTGAAATGTGTAGGTG (double strand) [CFTR int3 56444 site]”, in data set [9], the activity turned out to be 32.7 % indels.
Take “GTACACTGGACTCAGCAGCCTGAATTCC (double strand) [CFTR int7 56126 site]”: the activity in data set [10] came out at 55.4 % indels.
In turn, “GTCAACAGGTGTACTGCAGGCATGCTAG (double strand) [Cftr int1 56691 site]” showed an activity in [11] of 67.2 % indels.
“GTGAGAAGGCAGAGAGAAGAATATTTAT (double strand) [CFTR int3 56445 site]”: the activity in data set [12] was 32.7 % indels.
“TAGGGAAGGTAGGAGCATAAGGAAGAAT (double strand) [CFTR int8 56255 site]”: the activity in [13] was determined as 50.1 % indels.
As for “TGGAAGCTGAAGTTCTTGGAACATAGCA (double strand) [Cftr int8 56644 site]”, in data set [14], the activity stood at 49.2 % indels.
With “TTTATCCTTTTGCTGACCATGTTTTGTT (double strand) [CFTR int1 56317 site]”, in [15], the activity is 52 % indels.

The record behind these values is US20200079826.
